The results in this text go back to the supplement of paper PMC10567573.

The chains are these.
B1: C22orf15 (parent)
chain: ITQSWQVSVRVQPRGRAHLLPNPY
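Also: lentivirally expressed fusions sorted by FACS into six bins by GFP to DsRed ratio, PSI derived from sequencing read proportions per bin multiplied by bin number.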

In this series the parent is B1. Description: protein stability index of a GFP-peptide fusion (GPS, HEK-293T) (PSI 1-6); higher = more stable. As to conditions: c terminus: a fixed tail appended.
Turning to ITWSWQVSVRVQPRGRAHLLPNPY [Q3W], the protein stability index came to 1.68.
Next, ITFSWQVSVRVQPRGRAHLLPNPY [Q3F]: 2.14.
Take ITHSWQVSVRVQPRGRAHLLPNPY [Q3H]: the protein stability index was found to be 2.02.
For the variant ITRSWQVSVRVQPRGRAHLLPNPY [Q3R], the protein stability index amounted to 1.1.
Regarding ITYSWQVSVRVQPRGRAHLLPNPY [Q3Y], the protein stability index came to 4.26.
For the variant ITKSWQVSVRVQPRGRAHLLPNPY [Q3K], the protein stability index is 1.95.
To ITDSWQVSVRVQPRGRAHLLPNPY [Q3D] belongs 1.47; to ITNSWQVSVRVQPRGRAHLLPNPY [Q3N], 1.85.
To ITASWQVSVRVQPRGRAHLLPNPY [Q3A] belongs 3.08; to ITTSWQVSVRVQPRGRAHLLPNPY [Q3T], 1.51.
As to ITSSWQVSVRVQPRGRAHLLPNPY [Q3S], the protein stability index is 3.25.
Regarding ITESWQVSVRVQPRGRAHLLPNPY [Q3E], the protein stability index stood at 1.07.
On to IKQSWQVSVRVQPRGRAHLLPNPY [T2K], for which the protein stability index is 1.87.
As for IGQSWQVSVRVQPRGRAHLLPNPY [T2G], the protein stability index was 1.77.
As to IEQSWQVSVRVQPRGRAHLLPNPY [T2E], the protein stability index is 1.69.
To ILQSWQVSVRVQPRGRAHLLPNPY [T2L] belongs 2.27; to ICQSWQVSVRVQPRGRAHLLPNPY [T2C], 3.3; to IPQSWQVSVRVQPRGRAHLLPNPY [T2P], 2.43.
Turning to IMQSWQVSVRVQPRGRAHLLPNPY [T2M], the protein stability index came to 3.15.
For the variant IYQSWQVSVRVQPRGRAHLLPNPY [T2Y], the protein stability index turned out to be 3.42.
To IAQSWQVSVRVQPRGRAHLLPNPY [T2A] belongs 1.43; to IHQSWQVSVRVQPRGRAHLLPNPY [T2H], 1.45.
With IQQSWQVSVRVQPRGRAHLLPNPY [T2Q], the protein stability index turned out to be 2.53.
To ISQSWQVSVRVQPRGRAHLLPNPY [T2S] belongs 1.77.
In the case of IDQSWQVSVRVQPRGRAHLLPNPY [T2D], the protein stability index came out at 2.46.
As for IWQSWQVSVRVQPRGRAHLLPNPY [T2W], the protein stability index was found to be 2.62.
Consider IFQSWQVSVRVQPRGRAHLLPNPY [T2F], for which the protein stability index was 2.43.
For ITQSWQPSVRVQPRGRAHLLPNPY [V7P], the protein stability index is 2.7.
As to ITQSWQESVRVQPRGRAHLLPNPY [V7E], the protein stability index worked out at 2.29.
With ITQSWQASVRVQPRGRAHLLPNPY [V7A], the protein stability index was found to be 2.77.
Consider ITQSWQFSVRVQPRGRAHLLPNPY [V7F], for which the protein stability index is 2.22.
As to ITQSWQYSVRVQPRGRAHLLPNPY [V7Y], the protein stability index worked out at 1.86.
For the variant ITQSWQSSVRVQPRGRAHLLPNPY [V7S], the protein stability index is 2.12.
In the case of ITQSWQHSVRVQPRGRAHLLPNPY [V7H], the protein stability index is 2.68.
ITQSWQQSVRVQPRGRAHLLPNPY [V7Q]: the protein stability index came to 2.51.
In the case of ITQSWQDSVRVQPRGRAHLLPNPY [V7D], the protein stability index was determined as 2.42.
Consider ITQSWQGSVRVQPRGRAHLLPNPY [V7G], for which the protein stability index was 2.34.
With ITQSWQWSVRVQPRGRAHLLPNPY [V7W], the protein stability index was 1.5.
Take ITQSWQNSVRVQPRGRAHLLPNPY [V7N]: the protein stability index is 2.38.
Next, ITQSWQRSVRVQPRGRAHLLPNPY [V7R]: 2.39.
In the case of ITQSWQLSVRVQPRGRAHLLPNPY [V7L], the protein stability index was 1.88.
As to ITQSWQCSVRVQPRGRAHLLPNPY [V7C], the protein stability index came to 1.6.
Take ITQSWQMSVRVQPRGRAHLLPNPY [V7M]: the protein stability index came to 2.46.
Turning to ITQSWQTSVRVQPRGRAHLLPNPY [V7T], the protein stability index came to 2.04.
Take ITQSWQKSVRVQPRGRAHLLPNPY [V7K]: the protein stability index was determined as 1.81.
Next, ITQRWQVSVRVQPRGRAHLLPNPY [S4R]: 2.99; ITQNWQVSVRVQPRGRAHLLPNPY [S4N]: 1.73.
As for ITQAWQVSVRVQPRGRAHLLPNPY [S4A], the protein stability index is 3.33.
As to ITQHWQVSVRVQPRGRAHLLPNPY [S4H], the protein stability index came to 2.83.
Next, ITQFWQVSVRVQPRGRAHLLPNPY [S4F]: 3.65; ITQGWQVSVRVQPRGRAHLLPNPY [S4G]: 2.27.
Take ITQPWQVSVRVQPRGRAHLLPNPY [S4P]: the protein stability index came to 1.65.
Next, ITQQWQVSVRVQPRGRAHLLPNPY [S4Q]: 1.87; ITQYWQVSVRVQPRGRAHLLPNPY [S4Y]: 2.42; ITQKWQVSVRVQPRGRAHLLPNPY [S4K]: 1.42.
As to ITQTWQVSVRVQPRGRAHLLPNPY [S4T], the protein stability index was determined as 1.48.
Turning to ITQSWIVSVRVQPRGRAHLLPNPY [Q6I], the protein stability index was 2.74.
To ITQSWSVSVRVQPRGRAHLLPNPY [Q6S] belongs 1.9.
ITQSWFVSVRVQPRGRAHLLPNPY [Q6F]: the protein stability index stood at 4.73.
On to ITQSWAVSVRVQPRGRAHLLPNPY [Q6A], for which the protein stability index was 1.09.
Regarding ITQSWPVSVRVQPRGRAHLLPNPY [Q6P], the protein stability index is 3.07.
As to ITQSWTVSVRVQPRGRAHLLPNPY [Q6T], the protein stability index came out at 1.77.
With ITQSWEVSVRVQPRGRAHLLPNPY [Q6E], the protein stability index came out at 1.92.
In the case of ITQSWDVSVRVQPRGRAHLLPNPY [Q6D], the protein stability index is 2.15.
For the variant ITQSWYVSVRVQPRGRAHLLPNPY [Q6Y], the protein stability index is 1.96.
In the case of ITQSWNVSVRVQPRGRAHLLPNPY [Q6N], the protein stability index is 1.73.
To ITQSWQVAVRVQPRGRAHLLPNPY [S8A] belongs 1.27.
For TTQSWQVSVRVQPRGRAHLLPNPY [I1T], the protein stability index stood at 1.9.
For STQSWQVSVRVQPRGRAHLLPNPY [I1S], the protein stability index stood at 1.78.
Take RTQSWQVSVRVQPRGRAHLLPNPY [I1R]: the protein stability index was determined as 1.68.
Take YTQSWQVSVRVQPRGRAHLLPNPY [I1Y]: the protein stability index worked out at 3.3.
To VTQSWQVSVRVQPRGRAHLLPNPY [I1V] belongs 1.41; to PTQSWQVSVRVQPRGRAHLLPNPY [I1P], 1.64; to MTQSWQVSVRVQPRGRAHLLPNPY [I1M], 1.26.
For the variant QTQSWQVSVRVQPRGRAHLLPNPY [I1Q], the protein stability index was 1.31.
As for NTQSWQVSVRVQPRGRAHLLPNPY [I1N], the protein stability index is 2.24.
For ITQSRQVSVRVQPRGRAHLLPNPY [W5R], the protein stability index came to 2.21.
As to ITQSSQVSVRVQPRGRAHLLPNPY [W5S], the protein stability index was 2.69.
To ITQSIQVSVRVQPRGRAHLLPNPY [W5I] belongs 4.28; to ITQSLQVSVRVQPRGRAHLLPNPY [W5L], 3.62; to ITQSVQVSVRVQPRGRAHLLPNPY [W5V], 3.07.
Next, ITQSHQVSVRVQPRGRAHLLPNPY [W5H]: 2.57; ITQSDQVSVRVQPRGRAHLLPNPY [W5D]: 2.32.
As to ITQSYQVSVRVQPRGRAHLLPNPY [W5Y], the protein stability index came out at 1.84.
To ITQSQQVSVRVQPRGRAHLLPNPY [W5Q] belongs 1.81.
For ITQSPQVSVRVQPRGRAHLLPNPY [W5P], the protein stability index turned out to be 2.56.
Regarding ITQSAQVSVRVQPRGRAHLLPNPY [W5A], the protein stability index came out at 1.86.
Take ITQSKQVSVRVQPRGRAHLLPNPY [W5K]: the protein stability index came out at 3.36.
Next, ITQSMQVSVRVQPRGRAHLLPNPY [W5M]: 1.61.
For the variant ITQSNQVSVRVQPRGRAHLLPNPY [W5N], the protein stability index is 2.86.
As for ITQSTQVSVRVQPRGRAHLLPNPY [W5T], the protein stability index came out at 1.48.
Take ITQSEQVSVRVQPRGRAHLLPNPY [W5E]: the protein stability index was found to be 2.97.
For ITQSCQVSVRVQPRGRAHLLPNPY [W5C], the protein stability index worked out at 2.25.
Next, ITQSFQVSVRVQPRGRAHLLPNPY [W5F]: 2.29.
